How the values were obtained:
[1] = molecular target: Swedish mutant P13-P5′ peptide with P1′ aspartic acid replaced with a leucine (D→L), P05067
[2] = molecular target: Swedish mutant P13-P5′ peptide with P1′ aspartic acid replaced with a valine (D→V), P05067
Chain of Swedish mutant P13-P5′ peptide with P1′ aspartic acid replaced with a valine (D→V), P05067 (P05067 whole entry, looked up, change not shown, tested part not stated): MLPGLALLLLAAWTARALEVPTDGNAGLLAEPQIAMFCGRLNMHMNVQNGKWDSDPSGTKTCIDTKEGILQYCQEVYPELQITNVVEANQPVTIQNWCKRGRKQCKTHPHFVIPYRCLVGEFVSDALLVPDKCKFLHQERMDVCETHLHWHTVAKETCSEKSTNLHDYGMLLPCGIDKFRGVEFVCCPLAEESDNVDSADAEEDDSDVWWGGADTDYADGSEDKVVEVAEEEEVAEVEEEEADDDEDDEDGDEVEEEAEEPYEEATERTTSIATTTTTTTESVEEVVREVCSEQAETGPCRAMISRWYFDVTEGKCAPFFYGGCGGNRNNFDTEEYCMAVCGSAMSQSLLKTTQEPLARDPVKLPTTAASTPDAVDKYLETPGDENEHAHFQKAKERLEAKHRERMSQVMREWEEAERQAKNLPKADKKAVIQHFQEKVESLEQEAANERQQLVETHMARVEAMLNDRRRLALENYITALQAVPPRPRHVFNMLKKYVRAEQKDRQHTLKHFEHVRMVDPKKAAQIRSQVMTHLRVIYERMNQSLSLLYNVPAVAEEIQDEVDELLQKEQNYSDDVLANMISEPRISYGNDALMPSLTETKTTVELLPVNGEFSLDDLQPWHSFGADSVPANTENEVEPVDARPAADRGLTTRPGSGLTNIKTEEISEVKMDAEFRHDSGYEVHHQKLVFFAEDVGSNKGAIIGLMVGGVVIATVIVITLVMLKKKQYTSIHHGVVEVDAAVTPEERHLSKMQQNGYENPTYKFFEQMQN

Chain of Swedish mutant P13-P5′ peptide with P1′ aspartic acid replaced with a leucine (D→L), P05067 (P05067 whole entry, looked up, change not shown, tested part not stated): as above

B1: naturally occurring β-secretase purified from human brain (protein)
chain: ETDEEPEEPGRRGSFVEMVDNLRGKSGQGYYVEMTVGSPPQTLNILVDTGSSNFAVGAAPHPFLHRYYQRQLSSTYRDLRKGVYVPYTQGKWEGELGTDLVSIPHGPNVTVRANIAAITESDKFFINGSNWEGILGLAYAEIARPDDSLEPFFDSLVKQTHVPNLFSLQLCGAGFPLNQSEVLASVGGSMIIGGIDHSLYTGSLWYTPIRREWYYEVIIVRVEINGQDLKMDCKEYNYDKSIVDSGTTNLRLPKKVFEAAVKSIKAASSTEKFPDGFWLGEQLVCWQAGTTPWNIFPVISLYLMGEVTNQSFRITILPQQYLRPVEDVATSQDDCYKFAISQSSTGTVMGAVIMEGFYVVFDRARKRIGFAVSACHVHDEFRTAAVEGPFVTLDMEDCGYNIPQTDESTLMTIAYVMAAICALFMLPLCLMVCQWRCLRCLRQQHDDFADDISLLK
- substrate concentration dependence of hydrolysis by brain β-secretase [1]: show saturation at a lower concentration than the parent Swedish peptide
- substrate concentration dependence of hydrolysis by brain β-secretase [2]: show saturation at a lower concentration than the parent Swedish peptide

Source: patent US7456007
